Experimental data taken from patent US11219221B2 (FarmHannong Co., Ltd., priority 2017, dated 2022).

System: CyPPO17
Assay: Herbicide tolerance test of CyPPO17 wild type and variants in PPO-deficient E. coli BT3(ΔPPO)
Format: cell-based, Thermosynechococcus sp. NK55a
Details: BT3(ΔPPO) transformants, two or more amino acid mutations, dark; for Herbicide tolerance, tiafenacil: 37° C., 16 to 20 hours, relative to wild type at highest concentration (50, 200 μM); for Herbicide tolerance, flumioxazin: relative to wild type at highest concentration (100, 200 μM); for Herbicide tolerance, sulfentrazone: relative to wild type at highest concentration (200, 400 μM)
Protocol: The mutated CyPPO gene obtained from the Example 2 was transformed to BT3 (ΔPPO) strain which is deficient of PPO activity and cultured in LB media with PPO-inhibiting herbicide, thereby examining whether growth of transformed BT3 was not inhibited.
BT3 competent cells were transformed with the pET303-CyPPO16 and pET303-CyPPO17 plasmids and those with a mutation(s) constructed in Example 2 respectively, and were cultured in LB agar media containing carbenicillin (Gold Biotechnology, Co., Ltd.).
Single colony of E. coli transformed with each CyPPO gene was cultured in 3 ml of LB broth containing carbenicillin overnight, and then was subcultured until absorbance (0D600) reached 0.5 to 1. Then, it was diluted with LB broth to OD600=0.5. Again, the diluted solution was serially diluted 4 times by a factor of one tenth.
The LB agar media (LB 25 g/l, Bacto agar 15 g/l) containing carbenicillin (100 μg/ml) and 0 to 4,000 μM of various herbicides dissolved in DMSO was prepared. Next, 10 μl of each diluted solution was dropped on the plate and cultured at 37° C. under light (Tables 7 and 9, FIGS. 2 to 6, and 18 to 22) or dark (Tables 8 and 10, FIGS. 7 to 17, and 23 to 33) for 16 to 20 hours. Then, extent of tolerance was evaluated.
The extent of herbicide tolerance of the mutated genes was evaluated by comparing that of mutated genes with that of wild type. The relative tolerance was represented with “+” as a factor of 10 times. Evaluation result was listed in Tables 7 to10 and FIGS. 2 to 33:
In Tables 7 to 10, tolerance level was presented as of tolerance of wild type and of variants equivalent to that of wild type, and was done as ‘+’ per each 10 fold resistance until ‘+++++’ as maximal resistance. (Tolerance level was evaluated by relative growth level of variants to that of wild type in the media containing highest concentration of herbicide; ‘+’=1-9 fold higher tolerance, ‘++’=10-99 fold higher tolerance, ‘+++’=100-999 fold higher tolerance, ‘++++’=1,000-9,999 fold higher tolerance, ‘+++++’=more than 10,000 fold higher tolerance)
The concentrations of herbicides were written above the photographs of tolerance test. A dilution series (0D600=0.5, 0.05, 0.005, 0.0005, 0.00005) was made and spotted on LB agar plates supplemented with herbicides.

B1: V304M + F359I: CyPPO17 variant (protein)
chain: MEVDVAIVGGGLSGLSVAWRLQQSAPQYSGVLLEASDRLGGNITTQGAEGFVWELGPNSFAPTPALLQLIAEVGLHSELIRGDRHLPRYIYWRGELYPLEPTRPLALATSNLLSPWGKVRAALGALGFVPPYLGSGDESVNSFFRRHLGQEVAERLVAPFVSGVYAGDPQQLSAAAAFRRIAQLEKLGGGLIAGALRLRRQQPPKPRPPAEVQMRPGELGSFKEGLAALPRAIAQQLKAPVHLQTPVEAITPEPNGGYLLRSGEQTWQARSVVLATPAYQTAALVAPFQPAIARVLAAIPYPTMACVVLAYPAGLGRSVRPGFGVLIPRGQGIRTLGTIWSSCLFPQRTPAGWQVFTSIIGGATDPDLASLREEAIVQQVQQDLTRLLDLPAAKARLLGMKVWRRAIPQYLVGYPQQWQQVTHALSQTPGLFLCSNYAEGVALGDRVEHGNRTAAAVAAYLSGGQS
modifications: Synthetic (Protoporphyrinogen IX oxidase (CyPPO17) of Thermosynechococcus sp. NK55a)
notes: CyPPO17 variant
**Q.** What does the source list for B1?
**A.** Herbicide tolerance, tiafenacil: +++ (‘+++’=100-999 fold higher tolerance); Herbicide tolerance, flumioxazin: +++ (‘+++’=100-999 fold higher tolerance); Herbicide tolerance, sulfentrazone: ++ (‘++’=10-99 fold higher tolerance)

B2: R88A + V164C + A166C + V304M + L326T + F359M: CyPPO17 variant (protein)
chain: MEVDVAIVGGGLSGLSVAWRLQQSAPQYSGVLLEASDRLGGNITTQGAEGFVWELGPNSFAPTPALLQLIAEVGLHSELIRGDRHLPAYIYWRGELYPLEPTRPLALATSNLLSPWGKVRAALGALGFVPPYLGSGDESVNSFFRRHLGQEVAERLVAPFVSGCYCGDPQQLSAAAAFRRIAQLEKLGGGLIAGALRLRRQQPPKPRPPAEVQMRPGELGSFKEGLAALPRAIAQQLKAPVHLQTPVEAITPEPNGGYLLRSGEQTWQARSVVLATPAYQTAALVAPFQPAIARVLAAIPYPTMACVVLAYPAGLGRSVRPGFGVTIPRGQGIRTLGTIWSSCLFPQRTPAGWQVFTSMIGGATDPDLASLREEAIVQQVQQDLTRLLDLPAAKARLLGMKVWRRAIPQYLVGYPQQWQQVTHALSQTPGLFLCSNYAEGVALGDRVEHGNRTAAAVAAYLSGGQS
modifications: Synthetic (Protoporphyrinogen IX oxidase (CyPPO17) of Thermosynechococcus sp. NK55a)
notes: CyPPO17 variant
**Q.** Which results are given for B2?
**A.** Herbicide tolerance, tiafenacil: +++++ (‘+++++’=more than 10,000 fold higher tolerance); Herbicide tolerance, flumioxazin: +++++ (‘+++++’=more than 10,000 fold higher tolerance); Herbicide tolerance, sulfentrazone: ++++ (‘++++’=1,000-9,999 fold higher tolerance)

B3: V164C + A166L + L326T + F359M: CyPPO17 variant (protein)
chain: MEVDVAIVGGGLSGLSVAWRLQQSAPQYSGVLLEASDRLGGNITTQGAEGFVWELGPNSFAPTPALLQLIAEVGLHSELIRGDRHLPRYIYWRGELYPLEPTRPLALATSNLLSPWGKVRAALGALGFVPPYLGSGDESVNSFFRRHLGQEVAERLVAPFVSGCYLGDPQQLSAAAAFRRIAQLEKLGGGLIAGALRLRRQQPPKPRPPAEVQMRPGELGSFKEGLAALPRAIAQQLKAPVHLQTPVEAITPEPNGGYLLRSGEQTWQARSVVLATPAYQTAALVAPFQPAIARVLAAIPYPTVACVVLAYPAGLGRSVRPGFGVTIPRGQGIRTLGTIWSSCLFPQRTPAGWQVFTSMIGGATDPDLASLREEAIVQQVQQDLTRLLDLPAAKARLLGMKVWRRAIPQYLVGYPQQWQQVTHALSQTPGLFLCSNYAEGVALGDRVEHGNRTAAAVAAYLSGGQS
modifications: Synthetic (Protoporphyrinogen IX oxidase (CyPPO17) of Thermosynechococcus sp. NK55a)
notes: CyPPO17 variant
**Q.** What does the source list for B3?
**A.** Herbicide tolerance, tiafenacil: +++++ (‘+++++’=more than 10,000 fold higher tolerance); Herbicide tolerance, flumioxazin: +++++ (‘+++++’=more than 10,000 fold higher tolerance); Herbicide tolerance, sulfentrazone: ++++ (‘++++’=1,000-9,999 fold higher tolerance)

B4: V164C + A166L + V304M + L326T + F359M: CyPPO17 variant (protein)
chain: MEVDVAIVGGGLSGLSVAWRLQQSAPQYSGVLLEASDRLGGNITTQGAEGFVWELGPNSFAPTPALLQLIAEVGLHSELIRGDRHLPRYIYWRGELYPLEPTRPLALATSNLLSPWGKVRAALGALGFVPPYLGSGDESVNSFFRRHLGQEVAERLVAPFVSGCYLGDPQQLSAAAAFRRIAQLEKLGGGLIAGALRLRRQQPPKPRPPAEVQMRPGELGSFKEGLAALPRAIAQQLKAPVHLQTPVEAITPEPNGGYLLRSGEQTWQARSVVLATPAYQTAALVAPFQPAIARVLAAIPYPTMACVVLAYPAGLGRSVRPGFGVTIPRGQGIRTLGTIWSSCLFPQRTPAGWQVFTSMIGGATDPDLASLREEAIVQQVQQDLTRLLDLPAAKARLLGMKVWRRAIPQYLVGYPQQWQQVTHALSQTPGLFLCSNYAEGVALGDRVEHGNRTAAAVAAYLSGGQS
modifications: Synthetic (Protoporphyrinogen IX oxidase (CyPPO17) of Thermosynechococcus sp. NK55a)
notes: CyPPO17 variant
**Q.** B4 was tested. Which “Herbicide tolerance, tiafenacil” value did it give?
**A.** +++++ (‘+++++’=more than 10,000 fold higher tolerance)

**Q.** And the “Herbicide tolerance, flumioxazin” value?
**A.** +++++ (‘+++++’=more than 10,000 fold higher tolerance)

**Q.** And the “Herbicide tolerance, sulfentrazone” value?
**A.** ++++ (‘++++’=1,000-9,999 fold higher tolerance)

B5: V304M + L326T + F359M: CyPPO17 variant (protein)
chain: MEVDVAIVGGGLSGLSVAWRLQQSAPQYSGVLLEASDRLGGNITTQGAEGFVWELGPNSFAPTPALLQLIAEVGLHSELIRGDRHLPRYIYWRGELYPLEPTRPLALATSNLLSPWGKVRAALGALGFVPPYLGSGDESVNSFFRRHLGQEVAERLVAPFVSGVYAGDPQQLSAAAAFRRIAQLEKLGGGLIAGALRLRRQQPPKPRPPAEVQMRPGELGSFKEGLAALPRAIAQQLKAPVHLQTPVEAITPEPNGGYLLRSGEQTWQARSVVLATPAYQTAALVAPFQPAIARVLAAIPYPTMACVVLAYPAGLGRSVRPGFGVTIPRGQGIRTLGTIWSSCLFPQRTPAGWQVFTSMIGGATDPDLASLREEAIVQQVQQDLTRLLDLPAAKARLLGMKVWRRAIPQYLVGYPQQWQQVTHALSQTPGLFLCSNYAEGVALGDRVEHGNRTAAAVAAYLSGGQS
modifications: Synthetic (Protoporphyrinogen IX oxidase (CyPPO17) of Thermosynechococcus sp. NK55a)
notes: CyPPO17 variant
**Q.** B5 was tested. Which “Herbicide tolerance, tiafenacil” value did it give?
**A.** ++++ (‘++++’=1,000-9,999 fold higher tolerance)

**Q.** What about the “Herbicide tolerance, flumioxazin” value of the same molecule?
**A.** ++++ (‘++++’=1,000-9,999 fold higher tolerance)

**Q.** And the “Herbicide tolerance, sulfentrazone” value?
**A.** +++ (‘+++’=100-999 fold higher tolerance)

B6: R88A + V164C + A166L + L326T + F359M: CyPPO17 variant (protein)
chain: MEVDVAIVGGGLSGLSVAWRLQQSAPQYSGVLLEASDRLGGNITTQGAEGFVWELGPNSFAPTPALLQLIAEVGLHSELIRGDRHLPAYIYWRGELYPLEPTRPLALATSNLLSPWGKVRAALGALGFVPPYLGSGDESVNSFFRRHLGQEVAERLVAPFVSGCYLGDPQQLSAAAAFRRIAQLEKLGGGLIAGALRLRRQQPPKPRPPAEVQMRPGELGSFKEGLAALPRAIAQQLKAPVHLQTPVEAITPEPNGGYLLRSGEQTWQARSVVLATPAYQTAALVAPFQPAIARVLAAIPYPTVACVVLAYPAGLGRSVRPGFGVTIPRGQGIRTLGTIWSSCLFPQRTPAGWQVFTSMIGGATDPDLASLREEAIVQQVQQDLTRLLDLPAAKARLLGMKVWRRAIPQYLVGYPQQWQQVTHALSQTPGLFLCSNYAEGVALGDRVEHGNRTAAAVAAYLSGGQS
modifications: Synthetic (Protoporphyrinogen IX oxidase (CyPPO17) of Thermosynechococcus sp. NK55a)
notes: CyPPO17 variant
**Q.** B6 was tested. Which “Herbicide tolerance, tiafenacil” value did it give?
**A.** +++++ (‘+++++’=more than 10,000 fold higher tolerance)

**Q.** And the “Herbicide tolerance, flumioxazin” value?
**A.** +++++ (‘+++++’=more than 10,000 fold higher tolerance)

**Q.** And the “Herbicide tolerance, sulfentrazone” value?
**A.** ++++ (‘++++’=1,000-9,999 fold higher tolerance)
